Experimental data: patent publication US12012599B2, “Compositions and methods for modulating left-right differentiation factor (LEFTY) and bone morphogenic factor (BMP)” (CZ Biohub SF LLC, priority 2018, dated 2024)

B1: LEFTY1: left-right determination factor 1, secreted TGF-β superfamily protein; generic LEFTY may mean LEFTY1 or LEFTY2 (protein, UniProt O75610 77-366, looked up)
Left-right determination …: RFSQSFREVAGRFLALEASTHLLVFGMEQRLPPNSELVQAVLRLFQEPVPKAALHRHGRLSPRSARARVTVEWLRVRDDGSNRTSLIDSRLVSVHESGWKAFDVTEAVNFWQQLSRPRQPLLLQVSVQREHLGPLASGAHKLVRFASQGAPAGLGEPQLELHTLDLGDYGAQGDCDPEAPMTEGTRCCRQEMYIDLQGMKWAENWVLEPPGFLAYECVGTCRQPPEALAFKWPFLGPRQCIASETDSLPMIVSIKEGGRTRPQVVSLPNMRVQKCSCASDGALVPRRLQP
B2: BMP7: bone morphogenetic protein 7, BMPR2 ligand (protein)
chain: STGSKQRSQNRSKTPKNQEALRMANVAENSSSDQRQACKKHELYVSFRDLGWQDWIIAPEGYAAYYCEGECAFPLNSYMNATNHAIVQTLVHFINPETVPKPCCAPTQLNAISVLYFDDSSNVILKKYRNMVVRACGCH

Key:
[1] = test system: pSMAD5; assay: Immunofluorescent pSMAD5 positive cells in mammary glands exposed to ligand-secreting fibroblasts; assay type: in vivo, mouse
Procedure: (§1) FIGS. 4A-4I. LEFTY1 inhibits the phosphorylation of SMAD2 and SMAD5 in basal mammary epithelial cells. FIGS. 4A-4C show exemplary quantification of pSMAD2 and pSMAD5 positive cells within the luminal and basal cells of mammary glands isolated from mice that were injected with control or LEFTY1-secreting L1 fibroblasts. Immunofluorescent detection of pSMAD2 or pSMAD5 proteins was used to visualize positive cells. KRT8 and SMA were used to determine the luminal or basal cells, respectively. […] Immunofluorescent detection of pSMAD2 or pSMAD5 proteins was used to visualize positive cells. KRT8 and SMA were used to determine the luminal or basal cells, respectively. FIGS. 4H-4I show representative images of the quantified sections for pSMAD2 and pSMAD5 analysis (Magnification, 400×). Data are represented as median±S.D. Statistical analysis, Student's T-test, n.s. non-significant; ****p<0.0001.
FIGS. 5A-5H. LEFTY1 inhibits pSMAD2 and pSMAD5 in the basal mammary epithelial cells. […] KRT8 was used to stain the luminal cells and SMA for basal cells (Magnification 400×). […] Gapdh was used as a housekeeping gene. […] Ten different fields were counted per condition (n=3). Data are represented as median±S.D. Statistical analysis, (a and b) Student's T-test, * p<0.05; (h) One-way ANOVA with Dunnet's adjustment, ****p<0.0001.

[2] = test system: mammary epithelial cells; assay: Mammary outgrowth formation on transplantation (ELDA); assay type: in vivo, mouse; details: primary transplantation
From the text: FIGS. 10A-10G. Mammary epithelial cells rely on LEFTY1 for their long-term proliferation potential. FIG. 10A is a schematic representation of the procedure used to inject control, LEFTY1- or BMP7-expressing mammary fibroblasts into the proximity of the mammary gland of 14-18 weeks old NSG female mice. Two to three weeks later, the mammary epithelial cells were isolated and injected in a limiting dilution fashion into weaning age […] mice to assess their engraftment potential. […] The next day, the transduced cells were injected in the cleared fat-pads of weaning age mice in order to test their exogenous mammary epithelial repopulation ability. […]
FIGS. 11A-11F. […] The number of positive outgrowths from the total of transplanted glands are shown, as well as the frequency and 95% CI of engrafting cells calculated by ELDA. […] The frequency and 95% CI was calculated using extreme limiting dilution analysis (ELDA). […]
Alteration of signaling pathways such as Wnt, Hedgehog and Notch results in branching phenotypes that may be linked to the frequency of cells that can be transplanted and originate mammary ducts in recipient mice (Lu & Werb, Science 322, 1506-1509 (2008)). We transplanted endogenous mammary epithelial cells that had been exposed to LEFTY1 or BMP7 for ^˜15 days in vivo and assessed ductal outgrowth formation upon transplantation into secondary recipients (FIG. 10A). […]

[3] = test system: pSMAD2; assay: Immunofluorescent pSMAD2 positive cells in mammary glands exposed to ligand-secreting fibroblasts; assay type: in vivo, mouse; details: basal and luminal compartments
Procedure: as §1

[4] = test system: mammary gland; assay: Mammary branching after injection of LEFTY1- or BMP7-secreting L1 fibroblasts into mammary fat-pad; assay type: in vivo, mouse; details: secreted ligand from transplanted fibroblasts; whole mount staining
Procedure: FIGS. 2A-2F. Effect of LEFTY1 and BMP7 in mammary glands. […] Ducts and terminal end buds (TEB) were analyzed for BMP7 positive cells. SMA and DAPI were used to identify basal cells and for nuclear counterstain, respectively (Magnification 200×). […] Ducts and terminal end buds (TEB) were analyzed for LEFTY1 positive cells. SMA and DAPI were used to identify basal cells and for nuclear counterstain, respectively (Magnification 200×). […] Four to seven images per mouse were analyzed for quantification. […] Four to seven images per mice were analyzed for quantification. […] Data are represented as median±S.E.M. Statistical analysis, Student's T-test, *p<0.05; ***p<0.001.
FIGS. 3A-3C. Effects of LEFTY1 and BMP7 on the morphology of the mouse mammary gland. […] Four to seven images per mouse were analyzed for quantification. […] Four to seven images per mouse were analyzed for quantification. Data are represented as median±S.E.M. Statistical analysis, Student's T-test, *p<0.05; **p<0.01; ****p<0.0001.
We first developed a system where transplantation of engineered non-autologous mammary fibroblast cells secreted particular ligands (FIG. 2C). […] These opposing results were unexpected, since both LEFTY1 and BMP7 have been described to have similar suppressive roles on NODAL/SMAD2/3 signaling (Chen et al., Current biology: CB 14, 618-624 (2004) and Yeo et al., Molecular cell 7, 949-957 (2001)).

[5] = test system: pSMAD5; assay: pSMAD5 immunofluorescence in MDA-MB-231; assay type: cell-based; details: 50 ng/mL BMP7 30 minutes, absence or presence of LEFTY 200 ng/mL
Procedure: (§2) FIGS. 20 and 21 are data from an experiment in which the breast cancer cell line MDA-MB-231 was plated and serum starved for 24 hours. 50 ng/mL BMP7 was added for 30 minutes to activate pSMAD5, either in the absence or presence of exogenous LEFTY (200 ng/mL). LEFTY-BMPR2 interaction, BMP7-BMPR2 interaction (as visualized by Proximity Ligation Assay, red), pSMAD5 status (As visualized by Immunofluorescence, green) were monitored and captured.
as §2, with “Breast” for “FIGS. 20 and 21 are data from an experiment in which the breast”, “(200 ng/mL) and LEFTY Antagonist (sc7408p) increasing in dose from 1x to 256x (x=25” for “(200”

| Molecule | pSMAD5 in basal cells [1] | pSMAD5 protein levels in luminal cells [1] | frequency of ductal outgrowths [2] | pSMAD2 expression [3] | extent and number of mammary tree branches [4] | pSMAD5 status [5] |
| --- | --- | --- | --- | --- | --- | --- |
| B1 | significant decrease | significant decrease | significantly increased | significant decrease | significant localized increase | reduces |
| B2 | significant increase | no effect | did not affect | no effect | decreased | activates pSMAD5 |
